Measurements as given in the DeepSol protein solubility set.

Test: soluble on expression in E. coli; label from the status in PepcDB or PDB records

Soluble on expression in E. coli, not soluble:
LADYGRTAAVNRVEMRDTELGIVTAGVSYQYVREVFPNASVLKLGMVYPLPMDLIREFASKVTKLIVVEELDAFIEDQVKAAGISVTGKEAIPLCGELTPGRLRAAFGIPGAPQVTVENLPGRPPNMCPGCPHRGVFFTLNQLKAYVTGDIGCYTLGFMPPLNAMDTCVCMGASISSASGIVRVLSDEEKKKVVAVIGDSTFLHTGVNSLMEMAYNKAPATVVILDN
MKNFMKYLEVSKEVKEALENNKPVVALESTIISHGMPFPQNYETALKVEKVIREAGAIPATIAILDGKLKVGLSAEEIEFLGKEGSKIIKVSRRDLPYIVANKLNGATTVATTMIVAEMAGVKVFATGGIGGVHRGAETTMDISADLEELSNTNVAVICAGAKSILDLGLTLEYLETHGVPVLGYQTKKLPAFFTRESEFDLDYKIDTPKELADIITAKWEMGLNGGVVIANPIPVEYSMDYDEISKSIEEAVKEAEAKGIKGKESTPFLLAKIKEITKGKSLEANIQLVYNNAKLASEIAGNMK
MGSDKIHHHHHHMILNSRTIDDAKFFDKPILLFFTDENCKDCDTIYSKLQDSTIFSKYIGKKVNALEYIHYTIRLTRGMIPTITILSPTLDLLAVIESKDLKFIENKLRELLDEYKRRIVKGIKLEGYTPDPIEPTPSIIYETINKVIGGYEADTRMIEVYLTYTNVYKEYLKAKDKIKCSDDVARYLLEGKGEIKIDEKSSANVSMLVNYGVTSVQKLLDFIDINSGEVYRSKKKETKGILLDEALAGNALVSEYERTINEEYLSLAIKVADYIKNNLQHERGFRDIKEIDNITKVPYLEPISNSEASIFFSRLWNITGDETYKNLALKGLGSALGGALNNPKVIARAAIAYLKLFDSIKANRYLNIIDARITVVKNNGCNDSMLYYSGQCYSKIDEIQPTAF
MLVMIDTKRPPVYIDSQVGLNTFFFIRGQYPSLNLFVSFITTVKTLGNNVSRTHGDDAESDCVCDSVSNVDENNEVVDEQDDVEDDKTDEDEEEGDNEDGDGYDAY
MGNARGFLDFKRMDFKKIAPKERILNYKEFTIPLDKKEQEVQGGRCMDCGVAFCHTGVMSEGKDVGCPLNNLIPEWNDLVYRSLWKEAYERLDLTNPFPEFTGRVCPAPCEDSCVCAINGVSVSIKNNELSIIENAFKENLVRVNKPKQYNGKKIAVIGSGPAGLACANTLNSLGYKVSVFERSDKIGGLLMYGIPDMKLDKSIVQRRVDLLKKSGIEFKVNENIDSKDKVSKLLKEFDALVLCTGASKPIDLDIEGRKLKGVEFALDFLTQNTKTLLKTGKGADMAKGKNVLVIGSGDTSVDCIAVATRQGAKSIVRFERSPKRPLQRSQNNPWPLKADIFTTDYGLEEAIAVYGKDPREYQKMTKKFLGKTHVEGVEANDLKREFKEGKAINVEISNSKKTYKADLVLLAMGFSGCEEAISKNFGVKLDEKNNISTENFQTTHKKIFACGDARKGQSLVVWAIKDGIECALSLHQNLAKLEHHHHHH
DIEVSEDVRKEQLGWLSCVSRAILKQNIITYSQPIVHAYSHLPASQECLVRILEEDGTVIAPGRFLPIISDTHLYTRLSRHMIRSTLHYMRDKKGDFSINLSPQDLLSDKTLMLLEHEISQLNDPTRIGLEVLESEQIKDYGRMIEVCSHFRKLGARIIVDDFGSGYSNIDEILKLEPEVIKLDGSLIRDIDKDLKQRKIASQLVRLCQVFNAETVAEFVHNREVCKIAQDMGVDYLQGYYLGEP

Soluble on expression in E. coli, soluble:
YYHSVIVANLAETAAEKIGANPILARIGAYYHDIGKMKRPHFFTENIRDGKNPHEDITPSLSHLVLNEHVKYGVELARKYRLPLLVEFIIPQHHGTRSQKYFYYKAKQQFEDIPEEEFRYPGPKPQFKEAAIIMLADSVEA
QSPAEIASFSPRPSLADSKAVLNQAVADLSVAHSILHQVHWYMRGRGFMIWHPKMDEYMEEIDGYLDEMSERLITLGGAPFSTLKEFSENSQLKEVLGDYNVTIEEQLARVVEVFRYLAALFQKGFDVSDEEGDSVTNDIFNVAKASIEKHIWMLQAELGQAPKL
MVSATYSVVYETGKKLNSGFDNWGWDSKMSFKDNSLVLTADPDEYGAISLKNLNSNYYGKGGCIYLQVKTETEGLVKVQGVRGYDETEAFNVGSFRSSSDFTEYKFEVDDEYQFDRIIVQDGPASNIPIYMRYIIYSTGSCDDHILEHHHHHH
MNFNKLKFGATIGIIGGGQLGKMMAQSAQKMGYKVVVLDPSEDCPCRYVAHEFIQAKYDDEKALNQLGQKCDVITYEFENISAQQLKLLCEKYNIPQGYQAIQLLQDRLTEKETLKSAGTKVVPFISVKESTDIDKAIETLGYPFIVKTRFGGYDGKGQVLINNEKDLQEGFKLIETSECVAEKYLNIKKEVSLTVTRGNNNQITFFPLQENEHRNQILFKTIVPARIDKTAEAKEQVNKIIQSIHFIGTFTVEFFIDSNNQLYVNEIAPRPHNSGHYSIEACDYSQFDTHILAVTGQSLPNSIELLKPAVMMNLLGKDLDLLENEFNEHPEWHLHIYGKSGRKDSRKMGHMTVLTNDVNQTEQDMYAKFEGSN
VKIELTVNGLKIQAQYQNEEIENVHKPLLHMLAALQTVNPQRRTVVFLCAPPGTGKSTLTTFWEYLAQQDPELPAIQTLPMDGFHHYNSWLDAHQLRPFKGAPETFDVAKLTENLRQVVEGDCTWPQYDRQKHDPVEDALHVTAPLVIVEGNWLLLDDEKWLELASFCDFSIFIHAPAQILRERLISRKIAGGLTRQVAEAFYARTDGPNVERVLMNSRQANLIVEMTEEGRYHFTS
SLAANMYRVGDYVYFENSSSNPYLIRRIEELNKTASGNVEAKVVCFYRRRDISNTLIMLADKHAKEIEEESETTVEADLTDKQKHQLKHRELFLSRQYESLPATHIRGKCSVALLNETESVLSYLDKEDTFFYSLVYDPSLKTLLADKGEIRVGPRYQADIPEMLLEGESDEREQSKLEVKVWDPNSPLTDRQIDQFLVVARAVGTFARALD
